This data set can be described thus: protein stability index of a GFP-peptide fusion (GPS, HEK-293T) (PSI 1-6); higher = more stable.
The mark [1] stands for this setting: treatment: DMSO, c terminus: a fixed tail appended.
The mark [2] stands for this setting: treatment: MLN4924 1 uM, 8 h, c terminus: a fixed tail appended.

± gives the standard deviation.
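Further: 24-mer peptide tiles fused after GFP, lentivirally expressed, FACS-sorted into six equal bins by GFP/DsRed ratio, decoded by Illumina sequencing, PSI is the read-weighted mean bin number.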

Take IAAAVYIMDTVGNIWVCYASYVVF [SLC19A2]: the protein stability index runs as follows: under setting [1], 2.89 ± 0.13; under setting [2], 2.87 ± 0.27.
Turning to AGRPRAERRPRRVEAERPHSLIGV [FAM189A2], the protein stability index under setting [1] came to 4.05 ± 0.15 and the protein stability index under setting [2] was 3.94 ± 0.21.
In the same order, the values of ADGQRHHSKLLVSGFWGVARHFNY [DHCR7] are 2.27 ± 0.43 and 2.14 ± 0.27.
As for RYSCESRIRSYLREVSSYPSTVGA [DFFB], the protein stability index runs as follows: under setting [1], 2.6 ± 0.27; under setting [2], 2.73 ± 0.46.
In the same order, the values of PDEAARARLLQEGGGGVAAVVVLD [DUSP5] are 4.3 ± 0.46 and 4.57 ± 0.13.
In the same order, the values of GGRKGRTLLLQGHHDKVQSLCYLQ [WDFY1] are 2.54 ± 0.095 and 2.73 ± 0.32.
AGGSARRPDTGDDAAGHGFCYCAG [GMCL1]: the protein stability index reads like this: under setting [1], 4.11 ± 0.46; under setting [2], 4.13 ± 0.19.
In the same order, the values of PCYDVRYAPSCAKCKKKITGEIMH [PDLIM7] are 3.04 ± 0.39 and 2.97 ± 0.38.
For SSGKNVTLLVCGKKAYDYFQAKKI [PDZK1], the protein stability index by setting is: under setting [1], 2.13 ± 0.26; under setting [2], 2.57 ± 0.82.
The matching figures for FSETHADPHNSRRGFFFSHVGWLL [SCD]: 2.66 ± 0.29 and 2.15 ± 0.21.
For VVVSVAGAFRKGKSFILDFMLRYL [ATL3], the protein stability index runs as follows: under setting [1], 2.55 ± 0.3; under setting [2], 2.68 ± 0.34.
The matching figures for GEQEFEALMRMLDNLGYRTGYPYR [ADD1]: 2.15 ± 0.3 and 2.26 ± 0.49.
In the same order, the values of GLLAGVGYFAFMLFRKRLGSMILA [GDAP1] are 1.99 ± 0.082 and 2.37 ± 0.41.
The matching figures for SHPRVQSGCDKEALLTGGGSENRN [RNF180]: 4.77 ± 0.31 and 4.65 ± 0.24.
KRKMVSWEASSLGLVTAALHMVIV [KMT2E] came in with a protein stability index under setting [1] of 2.53 ± 0.62 and a protein stability index under setting [2] of 3.33 ± 0.57.
On to RDANGWTLLHFSAARGKERCVRVF [ASB7], for which the protein stability index amounted to 2.29 ± 0.29 under setting [1] and 2.43 ± 0.43 under setting [2].
Consider VLQMWHIVDKCTELLREGRASATT [ZBTB22], for which the protein stability index reads like this: under setting [1], 2.19 ± 0.29; under setting [2], 2.25 ± 0.41.
In the same order, the values of EQERRLSEARLSQRDLSPTAEDAE [FCHSD1] are 5.41 ± 0.23 and 5.6 ± 0.26.
As to ATTISTSEDGSYGTDVTRCICGFT [KMT2E], the protein stability index is, setting by setting: under setting [1], 3.46 ± 0.21; under setting [2], 3.6 ± 0.39.
The matching figures for KKLEKYLQKLSALLMTADILAETG [ELOA2]: 2.74 ± 0.79 and 2.6 ± 0.055.
The matching figures for LLHVSSPNLASDSDLSRRSSSTMS [KCNA1]: 4.26 ± 0.069 and 4.37 ± 0.055.
The matching figures for LQGCSSIGLRLVLEYLYTANVTLS [KLHL14]: 3.07 ± 0.45 and 2.93 ± 0.67.
As for SPPSSSAASSYSFSDLNSTRGDAD [EMD], the protein stability index runs as follows: under setting [1], 5.12 ± 0.29; under setting [2], 4.98 ± 0.2.
In the case of HPTPFLAFLRRVKTCNPPDAGPMV [PTPRD], the protein stability index under setting [1] was determined as 2.37 ± 0.12 and the protein stability index under setting [2] came to 2.26 ± 0.18.
In the case of AEVSVISEADPQALLQAMKDLDGM [FBF1], the protein stability index is 4.52 ± 0.19 under setting [1] and 4.36 ± 0.2 under setting [2].
With DEVIDVMQENITKVIERGERLDEL [VAMP4], the protein stability index is, setting by setting: under setting [1], 4.77 ± 0.32; under setting [2], 4.88 ± 0.28.
The matching figures for VSHPIIYRGAVYADNMEFEQCIKL [FEM1B]: 2.5 ± 0.48 and 2.5 ± 0.25.
The matching figures for AKVKLVFVEDQAVVETVFFLTSRT [ZSWIM9]: 3.31 ± 0.38 and 3.01 ± 0.5.
The matching figures for APNAWQVIKGVLFRIFIIWAISSW [CLPTM1]: 2.94 ± 0.19 and 2.89 ± 0.53.
On to HLRATEKMKTRELHRESSNFDSIY [HDAC6], for which the protein stability index is, setting by setting: under setting [1], 3.18 ± 0.43; under setting [2], 3.46 ± 0.2.
The matching figures for GGSKYLIYRRYRQFHALQSKLEER [NCF4]: 2.45 ± 0.35 and 2.45 ± 0.33.
In the same order, the values of EEDKDEKSSIYESDFQIEPGFYAT [MIA2] are 4.61 ± 0.062 and 4.46 ± 0.4.
In the same order, the values of DDDDEEEEVSEVESFILDQDDLEN [ANKRD17] are 5.765 ± 0.056 and 5.68 ± 0.13.
AKLALFYDWLFFSPDKDSIMNIEP [INTS3]: the protein stability index amounted to 2.04 ± 0.34 under setting [1] and 1.9 ± 0.43 under setting [2].
The matching figures for VEKIRKLPNTLLRKDKDVARLQDF [ANKRD40]: 2.93 ± 0.22 and 3.02 ± 0.28.
On to KLEEVVNKKHGEAEKKKPKTQIVC [ZC3H15], for which the protein stability index under setting [1] was 4.64 ± 0.18 and the protein stability index under setting [2] worked out at 4.63 ± 0.24.
The matching figures for SISKLSPFSEFFKLRFNRKKKGMY [PWWP2B]: 2.06 ± 0.25 and 2.31 ± 0.19.
The matching figures for EQLIEAISNGDFESYTKMCDPGMT [CAMK2A]: 3.92 ± 0.28 and 3.76 ± 0.44.
The matching figures for DDIKESLESEGKNSKKEEPQELLQ [ATE1]: 5.65 ± 0.2 and 5.61 ± 0.13.
Consider GGDKLETMPLYLEDDIRPDIKDDI [SCD], for which the protein stability index reads like this: under setting [1], 4.9 ± 0.4; under setting [2], 5 ± 0.34.
The matching figures for KLVRSPSGLRMVPEHRAFGSPFGL [ZFYVE21]: 2.32 ± 0.076 and 2.28 ± 0.22.
The matching figures for LLPLQREPLYNWQATKASLKERFA [BTBD1]: 2.8 ± 0.22 and 2.82 ± 0.2.
In the same order, the values of QQPSKHRTDEELQPPTTTVARSGT [PLK2] are 5.47 ± 0.15 and 5.27 ± 0.1.
AYDYAKEVNSAEELEGLIADPDEM [FEM1C]: the protein stability index is, setting by setting: under setting [1], 5.68 ± 0.13; under setting [2], 5.51 ± 0.56.
The matching figures for GSSASTSPAPLDTCPSSSTASSIS [DYRK1B]: 5.22 ± 0.12 and 5.3 ± 0.078.
In the same order, the values of TRGIAKIISAHIHPVCSLCWSRDG [RBBP5] are 2.45 ± 0.44 and 2.04 ± 0.19.
The matching figures for DTTRQVQRISCFQSTVKCLTVLQR [WDR41]: 2.42 ± 0.33 and 2.63 ± 0.35.
EAIKNEMNVMLKSSPVDLVTATDQ [IMPA1]: the protein stability index came to 4.21 ± 0.11 under setting [1] and 4.67 ± 0.17 under setting [2].
In the same order, the values of YGHPAGIDYKTTTILLDGRRVKLQ [RAB40B] are 2.87 ± 0.28 and 3.14 ± 0.11.
In the same order, the values of MASDTPESLMALCTDFCLRNLDGT [ZER1] are 3.88 ± 0.14 and 3.43 ± 0.41.
Turning to SEKRRDPPNGPNLPMATVDIKNPE [WASL], the protein stability index runs as follows: under setting [1], 5.35 ± 0.11; under setting [2], 5.28 ± 0.17.
In the case of QARLEEQQRLAHLEDKLRLLAQAR [LRRC45], the protein stability index is, setting by setting: under setting [1], 3.37 ± 0.61; under setting [2], 3.32 ± 0.35.
For ENKQVVIIHHMRLQAKALQLIVTA [INTS4], the protein stability index is, setting by setting: under setting [1], 3.01 ± 0.56; under setting [2], 3.03 ± 0.44.
In the same order, the values of GTTLVVGLLAGVGYFAFMLFRKRL [GDAP1] are 2.41 ± 0.49 and 2.63 ± 0.22.
In the same order, the values of PDTMEKLRTHIDAIILALPEDLQG [DENND6A] are 3.02 ± 0.5 and 3.02 ± 0.23.
Sequence LLRLSKHGPGHETPMTIPEFFRES [ACSBG2] had a protein stability index under setting [1] of 2.73 ± 0.1 and a protein stability index under setting [2] of 3.06 ± 0.25.
Consider KDLILRFCIDSENRIGNSGVEEIK [STK38L], for which the protein stability index came to 2.472 ± 0.02 under setting [1] and 2.85 ± 0.42 under setting [2].
With KREAGNLTKATAPDQKSSGGRDS [SSNA1], the protein stability index came to 5.07 ± 0.23 (treatment: DMSO, c terminus: native) and 5.25 ± 0.17 (treatment: MLN4924 1 uM, 8 h, c terminus: native).
On to LEEKRLTWRLPDVSEAGGSGRLSA [FCHO1], for which the protein stability index came out at 4.37 ± 0.25 under setting [1] and 4.25 ± 0.044 under setting [2].
In the same order, the values of AQRSAHCSRPSGSSSSSGVLMVGP [CSNK1G1] are 3.65 ± 0.24 and 3.84 ± 0.14.
As to GSSDKVYAHQMVRTDSREQKLDAF [MLH1], the protein stability index by setting is: under setting [1], 4.12 ± 0.13; under setting [2], 4.13 ± 0.27.
In the same order, the values of RHYAYLRDSLSHLVPALRLPGRKL [INTS4] are 2.31 ± 0.16 and 2.49 ± 0.45.
MPQYILREFKVTDARDGQSRTVRQ [PTPRD]: the protein stability index runs as follows: under setting [1], 3.75 ± 0.18; under setting [2], 4.18 ± 0.27.
The matching figures for HQPKGLEEENAQLRGALQQGEAFQ [PBXIP1]: 5.07 ± 0.24 and 5.05 ± 0.12.
The matching figures for PLLKMDLNSEQAEQLERINDALSC [FAM98B]: 4.29 ± 0.24 and 4.36 ± 0.1.
In the same order, the values of PGEFSDASMSPDATKPSHWCSVAY [SMAD6] are 3.07 ± 0.14 and 3.14 ± 0.19.
In the case of KAMESQRAYRFVQGKDWGFKKFIR [SPOPL], the protein stability index worked out at 2.22 ± 0.38 under setting [1] and 2.09 ± 0.21 under setting [2].
The matching figures for YCVPRGNRRRFRVRQPILQYRWDM [BEX1]: 2.46 ± 0.21 and 2.55 ± 0.17.
In the same order, the values of YAPEAPYTSPDKLKDIFMFITRQL [PDS5B] are 2.59 ± 0.28 and 1.97 ± 0.34.
The matching figures for IGMSAAGMGLTGTMGMGMPNIAMT [CLINT1]: 2.62 ± 0.079 and 2.56 ± 0.13.
Sequence QIVQLTQQVDTNISVILPTVHEVD [DENND6A] displayed a protein stability index under setting [1] of 3.07 ± 0.35 and a protein stability index under setting [2] of 3.3 ± 0.37.
The matching figures for SVILSVKFSPFGQWWASVGMDDFL [TLE6]: 3.22 ± 0.46 and 3.02 ± 0.49.
